The target in the test is T1, CD127-Fc (IL-7Ralpha Fc) (human, UniProt P16871).
T1 chain: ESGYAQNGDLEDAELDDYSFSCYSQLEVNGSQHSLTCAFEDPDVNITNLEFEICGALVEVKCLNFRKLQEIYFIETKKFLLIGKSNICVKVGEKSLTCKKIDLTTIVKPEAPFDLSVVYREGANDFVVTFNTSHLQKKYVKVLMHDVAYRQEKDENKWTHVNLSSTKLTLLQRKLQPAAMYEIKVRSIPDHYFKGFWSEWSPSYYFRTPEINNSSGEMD
As to the kind of experiment: BLI.

B1: IL-7_s4a (designed binder)
chain: KKLNDLCFLKRLLQEIKTCWNKRYKAAFTECSQAADKAACLLPKLDELKQYESVLMVSIDQLLDSMKEIGSNCLNNEFNFFKRHICDANKECMFLFRAARKLRQFLKMQSTGDFDLHLLKVSEGTTILLQSTGCS
Usually Kd stands for a measure of binding affinity in units of concentration. A low value points to a tighter complex. For B1, the Kd was 14.5 nM.

B2: IL-7_s11 (designed binder)
chain: KKLNDLCFLKRLLQEIKTCWNKKVGSKCSKHPEAKRMPCAEDYLKQYESVLMVSIDQLLDSMKEIGSNCLNNEFNFFKRHICDANKECMFLFRAARKLRQFLKMQSTGDFDLHLLKVSEGTTILLQSTGCS
B2 yielded a Kd of 39.3 nM.

B3: IL-7_s1 (designed binder)
chain: KKLNDLCFLKRLLQEIKTCWNKIFAQYLQQSPFEDHKQYESVLMVSIDQLLDSMKEIGSNCLNNEFNFFKRHICDANKECMFLFRAARKLRQFLKMQSTGDFDLHLLKVSEGTTILLQSTGCS
In the case of B3, binding was characterised by a dissociation constant (Kd) of 1.89 nM.

B4: IL-7 wt-degly (protein)
chain: DCDIEGKDGKQYESVLMVSIDQLLDSMKEIGSNCLNNEFNFFKRHICDANKEGMFLFRAARKLRQFLKMQSTGDFDLHLLKVSEGTTILLQCTGQVKGRKPAALGEAQPTKSLEEQKSLKEQKKLNDLCFLKRLLQEIKTCWNKILMGTKEH
In turn, B4 returned a Kd of 64.7 nM.

B5: IL-7_s7 (designed binder)
chain: KKLNDLCFLKRLLQEIKTCWNKIVHTECSHGDLLECADDRKQYESVLMVSIDQLLDSMKEIGSNCLNNEFNFFKRHICDANKECMFLFRAARKLRQFLKMQSTGDFDLHLLKVSEGTTILLQSTGCS
Molecule B5 yielded a Kd of 56.7 nM.

B6: IL-7_s5 (designed binder)
chain: KKLNDLCFLKRLLQEIKTCWNKILQKFGERAAKQYESVLMVSIDQLLDSMKEIGSNCLNNEFNFFKRHICDANKECMFLFRAARKLRQFLKMQSTGDFDLHLLKVSEGTTILLQSTGCS
B6: the Kd turned out to be 7.57 nM.

B7: IL-7_s9 (designed binder)
chain: KKLNDLCFLKRLLQEIKTCWNKICSAAADPHECYKQYESVLMVSIDQLLDSMKEIGSNCLNNEFNFFKRHICDANKECMFLFRAARKLRQFLKMQSTGDFDLHLLKVSEGTTILLQSTGCS
The molecule B7 showed a Kd of 49.3 nM.

B8: IL-7_s12 (designed binder)
chain: KKLNDLCFLKRLLQEIKTCWNKLHEKTPVSDRVTKQYESVLMVSIDQLLDSMKEIGSNCLNNEFNFFKRHICDANKECMFLFRAARKLRQFLKMQSTGDFDLHLLKVSEGTTILLQSTGCS
Turning to B8, the Kd stood at 25.9 nM.

B9: IL-7_s13a (designed binder)
chain: KKLNDLCFLKRLLQEIKTCWNKICSKADDKETCKQYESVLMVSIDQLLDSMKEIGSNCLNNEFNFFKRHICDANKECMFLFRAARKLRQFLKMQSTGDFDLHLLKVSEGTTILLQSTGCS
The molecule B9 displayed a Kd of 3.6 nM.

B10: IL-7_s2 (designed binder)
chain: KKLNDLCFLKRLLQEIKTCWNKICSAKQEPERNECFKQYESVLMVSIDQLLDSMKEIGSNCLNNEFNFFKRHICDANKECMFLFRAARKLRQFLKMQSTGDFDLHLLKVSEGTTILLQSTGCS
Consider B10, for which the Kd is 10.6 nM.

B11: IL-7_s8 (designed binder)
chain: KKLNDLCFLKRLLQEIKTCWNKECSEKPLLEKSHCIKQYESVLMVSIDQLLDSMKEIGSNCLNNEFNFFKRHICDANKECMFLFRAARKLRQFLKMQSTGDFDLHLLKVSEGTTILLQSTGCS
In turn, B11 had a Kd of 33.4 nM.

B12: IL-7_s13 (designed binder)
chain: KKLNDLCFLKRLLQEIKTCWNKILVEKCSKADDKETCFAEDGKQYESVLMVSIDQLLDSMKEIGSNCLNNEFNFFKRHICDANKECMFLFRAARKLRQFLKMQSTGDFDLHLLKVSEGTTILLQSTGCS
B12 gave a Kd of 31.9 nM.

B13: IL-7_s4 (designed binder)
chain: KKLNDLCFLKRLLQEIKTCWNKIAFTECSQAADKAACLLPKLDEYESVLMVSIDQLLDSMKEIGSNCLNNEFNFFKRHICDANKECMFLFRAARKLRQFLKMQSTGDFDLHLLKVSEGTTILLQSTGCS
In turn, B13 displayed a Kd of 33.6 nM.

B14: IL-7_s10 (designed binder)
chain: KKLNDLCFLKRLLQEIKTCWNKYTKKVPQVSTPTLVQYESVLMVSIDQLLDSMKEIGSNCLNNEFNFFKRHICDANKECMFLFRAARKLRQFLKMQSTGDFDLHLLKVSEGTTILLQSTGCS
Consider B14, for which the Kd is 35.3 nM.

B15: IL-7_s10a (designed binder)
chain: KKLNDLCFLKRLLQEIKTCWNKYTKKVPQVSTPTLKQYESVLMVSIDQLLDSMKEIGSNCLNNEFNFFKRHICDANKECMFLFRAARKLRQFLKMQSTGDFDLHLLKVSEGTTILLQSTGCS
For the molecule B15, binding was characterised by a dissociation constant (Kd) of 34.6 nM.

B16: IL-7_s6 (designed binder)
chain: KKLNDLCFLKRLLQEIKTCWNKILSQRFPKAEFAEVKQYESVLMVSIDQLLDSMKEIGSNCLNNEFNFFKRHICDANKECMFLFRAARKLRQFLKMQSTGDFDLHLLKVSEGTTILLQSTGCS
In the case of B16, binding was put at a Kd of 17.1 nM.

(Values after US20260285931 (published 2026).)
